These results are taken from the nanobody polyreactivity screen of Harvey et al. (2022).

This series is described as follows: yeast display, Sf9 membrane polyspecificity reagent, FACS + sequencing; frameworks hold sequencing errors. The essentials: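 Using colony PCR, genes from sorted yeast display clones were amplified, then sequenced on MiSeq at 2 × 250 and filtered by CDR length. The clones had been stained with 10% biotinylated, detergent-solubilized Sf9 membrane reagent for 1 hour at 4 °C and sorted by FACS into low and high (top ~1%) gates on anti-HA and streptavidin fluorescence. Polyreactivity labels come from the gate of origin.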
Consider “QVQLVESGGGLVPAGGSLRLSCAASGLTFYYYAMGWSRQAPGKERELVAGISGSDGSTYYADSVKGRFTISRDNAKNTVYLQMNSLKPEDTAVYYFAAEYYYPWPLYYITDGIYDMYYWGQGTQVTVSS”, for which the “polyreactivity (PSR sort gate)” value is on record as “low polyreactivity”.

With “QVQLVESGGGLVPAGGSLRLSCAASGRIFYYYAMGWYRQAPGKERELVAAISSSGGSTYYADSVKGRFTISRDNAKKTVYLQMNSLKPEDTAVYYCAKRYALSGYYRLYDYWGQGTQVTVSS”, the “polyreactivity (PSR sort gate)” value is listed as “high polyreactivity”.

Take “QVQLVESGGGLVPAGGSLRLSCAASGSIFGFYAMGWYRQSPGKERELVAGISYGDSSTYYADSVKGSFTISRDNAKNTVYLQMNSLKPEDTAVYYCAAGHRQKYNWGRYDYWGQGTQVTVSS”: the “polyreactivity (PSR sort gate)” value was “low polyreactivity”.

Turning to “QVQLVESGGGLVPAGGSLRLSCAASGSIFLAYAMGWYRQAPGKERELVAAITSIDGITSYADSVKGRFTISRDNAKNTVYLQMNSLTPEDTAVSYCAAPDGHWIRQWDTFEYWGQGTQVTVSS”, the “polyreactivity (PSR sort gate)” value was “low polyreactivity”.

In the case of “QVQLVESGGGLVPAGGSLRLSCAASGSIFTNAMGWYRQAPGKERELVAAIDANAGDTHYADSVKGRFTISRDNAKNTVYLQMNSLKPEDTAVYSCNADVTERLWTGEDDYWGQGTQVTVSS”, the “polyreactivity (PSR sort gate)” value was “low polyreactivity”.

For the sequence “QVQLVESGGGLVPAGGSLRLSCAASGSIFVQNAMGWYRQAPGKERELVAVINSGDSTNYADSVKGRFTISRDNAKNTVYLQMNSLKPEDTAVYYCNADVSYTSEDQRALFTNVYYWGQGTQVTVSS”, the “polyreactivity (PSR sort gate)” value is “low polyreactivity”.

As for “QVQLVESGGGLVPAGGSLRLSCAASGYTFYFYAMGWYRQAPGKERELVAAITGGGTTSYADSVKGRFTISRDNAKNTVYLQMNSLKPEDTADSYCNVLFADKSDYWGQATQVTVSS”, the “polyreactivity (PSR sort gate)” value was “low polyreactivity”.

With “QVQLVESGGGLVPAGGSLRLSCASSGITFRVYVMGWYRQAPGKESELVAPIDDNGGSTYYADSVKGRFTISRDNAKNTVYLQMNSLKPEDTAVYYCAKAIVYSLLEYGWVDYDDWGQGTQLTVSS”, the “polyreactivity (PSR sort gate)” value was “low polyreactivity”.

Consider “QVQLVESGGGLVPARGSLRLSWAASGSTFSLYAMGWYRQAPGKERELVAAISWSGGNTYYADSVKGRFTISRDNAKNTVYLQMNSLKPEDTAVYYCAAEGKTFHRYYLYSYDYWGQGTQVTVSS”, for which the “polyreactivity (PSR sort gate)” value was “high polyreactivity”.

“QVQLVESGGGLVPSGGSLRLSCAASGRIFTSNAMGWYRQAPGKERELVAAISKSGGRTYYADSVKGRFTISRDNAKNTVYLQMNSLKPEETAVYYFAKDNFWGQGTQVTLSS”: the “polyreactivity (PSR sort gate)” value is recorded as “high polyreactivity”.

On to “QVQLVESGGGLVQAAASLRLSCAAYGITFNSYVMGWSRQAPGKERELVAVISRGGGITYYADSVKGRFTISRDNAKNTVYLQMNSLKPEDTAVYYCAADHTHVYVLYYNDNYWGQGTQVTVSS”, for which the “polyreactivity (PSR sort gate)” value is “high polyreactivity”.

As to “QVQLVESGGGLVQAAGILRLSCAASGFIVVRNAMGWYRQAPGKERELVAAISAIGSSTYYADSVKGRFTISRDNAKNTVYLQLNSLKPEDTAVYYCAASGSRVSERSPTRLDYYCGQGTQVTVSS”, the “polyreactivity (PSR sort gate)” value is reported as “high polyreactivity”.

With “QVQLVESGGGLVQAAGILRLSCAASGSIFVTNAKGWYRQAPGKERELVAAISSGGNTNYADSVKGRFTISRDNAKNTVYLQINSLKPVDTAVYYCAKDPDKVDSVDMDYWGHGTQVTVSS”, the “polyreactivity (PSR sort gate)” value is given as “low polyreactivity”.

Consider “QVQLVESGGGLVQAAGRLRLSSAASGIIFYSYAMGWYRQAPGTEREFVAAITNSDGSTYYADSVKGRFTISRDNAKNTVYLQMYSLKPEDTAVYMYYWGQGTQVTVSS”, for which the “polyreactivity (PSR sort gate)” value was “low polyreactivity”.

Consider “QVQLVESGGGLVQAAGSLRLSCAASGFIFHYNAMGWYRKATGKERELDASITASASRTYYADSVKGRFTISLDNAKNTVYLQMNSLKPEDTAVYYCAKAIRITITRYRFGYWVQGTQVTVSS”, for which the “polyreactivity (PSR sort gate)” value was “high polyreactivity”.

As for “QVQLVESGGGLVQAAGSLRLSCAASGITFSWYAMGWYRQAPGNERALVASITQSGGSTYYADSVKGRFTISRDNAKNTVYLQMTCLKPEVTAVYYCSKRYLKPVYCYVRNYGSDYWGQGTQVTVSS”, the “polyreactivity (PSR sort gate)” value is “low polyreactivity”.

Take “QVQLVESGGGLVQAAGSLRLSCAASGQFFAYYAMGWYRQATGKEREFVAAISWTGGSTYYADSVKGRFTISRDYAKKTVYLLMNSLKPEDTGVYYCAAVSNHLRYVASRYSYYYWGQGTQVTVSS”: the “polyreactivity (PSR sort gate)” value is reported as “high polyreactivity”.

As to “QVQLVESGGGLVQAAGSLRLSCAASGRTFKYNAMGWYRQAPGKERELVAAITRSGTTYYADSVKGRFTISRDNAKNTVYLQMNSLKPEDTAVYYCNARIVNYGSYYYWGQGTQVTVSS”, the “polyreactivity (PSR sort gate)” value is on record as “high polyreactivity”.

Regarding “QVQLVESGGGLVQAAGSLRLSCAASGRTLGYYAMGWYRPAPGKERELVAAITRGGSTNYADSVKGRFTISRDNAKNTVYLQMNSLKPEDTAVYYCARRGGYFWLKGDYWGQGTQVTVSS”, the “polyreactivity (PSR sort gate)” value is given as “high polyreactivity”.

Turning to “QVQLVESGGGLVQAAGSLRLSCAASGSIFSANSMGWYRQAPGKERELVAAISGRGTRTYYADSVKGRFTISRDNAKYTVYLQMNSLKPEDTAVYYCNAARDRTSPEYDYWGQGTQVTVSS”, the “polyreactivity (PSR sort gate)” value was “high polyreactivity”.

Turning to “QVQLVESGGGLVQAAGSLRLSCAASGYTFGYYAMGWYRQAPGKERELVAAINWSGGSTYYADSVKGRFTISRDNEKNSVYLQMYSLKPEDTAVYYCAAQSRSPGYYYWGQGTQVTVSS”, the “polyreactivity (PSR sort gate)” value is given as “high polyreactivity”.

For “QVQLVESGGGLVQAAGSLRLSCAAYGGIFYWYAMGWYRQAPGKVRELVAVITLSGGSTDYADSVKGRFTISRDNAKNTVSLQMNSLKPEDTAFYYCAAEAYSYYPGTYEDDYWGQGTQVTVSS”, the “polyreactivity (PSR sort gate)” value is “low polyreactivity”.

With “QVQLVESGGGLVQAAGSLRLSSAASGRTFVGYSMGWYRQAPGKERELVAAIHWSVGITYYADSVKGRFTISRDNAKNTVYLQMNSLKPEDTAVYYCAADGYDEPDLLVYEPWREDEYWGQGTQVTVSA”, the “polyreactivity (PSR sort gate)” value was “low polyreactivity”.

As to “QVQLVESGGGLVQAAGSLSLICAASGIIFQRSAKGWYRQAPVKERELVATLTISGGSTYYADSVKGRFTISREYAKNTVYLQMNRLKPEDTAVYYCAAALYYPTVRRRFGSDYYWGQGTQVTVSS”, the “polyreactivity (PSR sort gate)” value is on record as “low polyreactivity”.

Take “QVQLVESGGGLVQAGASIRLSCAASGSTFYTYDMGRYIQAPGKERELVAVITPRSGTTSYADSVKGRFTISRDYAKNTVYLQMNSLKPEDTAVYYCNVYIPYSYGEYDYWGQGTQVTVSS”: the “polyreactivity (PSR sort gate)” value was “high polyreactivity”.

Take “QVQLVESGGGLVQAGASLRLICAASGITFDWYGMGWYRHAPGKERELVATITGSGDSTNYADSVKGRFTISRDNAQNTVYLQMNSLKPEDTAVYYCAAPTSYDQFGYEYWGQGTIVTVSS”: the “polyreactivity (PSR sort gate)” value is “low polyreactivity”.

On to “QVQLVESGGGLVQAGASLRLSCAAAGITIGSNVMGWYRQAPRKERELVAAISQCGGRTYYADSVKGRFTISRDYAKNTVYLQMNSMKPEDTAVYYCAKRQRSFYGRPMCDYWGQGTQVTVSS”, for which the “polyreactivity (PSR sort gate)” value was “high polyreactivity”.

Consider “QVQLVESGGGLVQAGASLRLSCAASGFILYYYAMGWYRQAPGKERELVAAISARGGSTYYADSVKGRFTISRDNAKNTVYLQMNSLKPVDTAVYYCKKAGGYTGYTRRYEYWGQGTQVTVSS”, for which the “polyreactivity (PSR sort gate)” value was “high polyreactivity”.

With “QVQLVESGGGLVQAGASLRLSCAASGFTLADNTMGWYRQAPGKERELVAAITSGASTYYADSVKGRFTISRDNAKNTVYLQMKSLKPEDTAVYYCAALYYWRSGYDYWGQGTQVTVSS”, the “polyreactivity (PSR sort gate)” value is reported as “low polyreactivity”.

For the sequence “QVQLVESGGGLVQAGASLRLSCAASGGTIAPYAMGWYRQAPGNVRELVAAITSAGTRTYYADSVKGRFTISRENAKNTVYLQMNRLKPEDTAVYYCAAGGGHSMYYWGKGTQVTVSS”, the “polyreactivity (PSR sort gate)” value is “high polyreactivity”.
